How the values were obtained:
physchem = assay type: physicochemical; details: pH 7.4
Procedure: Lipophilicity of the HPLC-purified radiopeptide analogs was determined through octanol/water partition coefficients, determined at pH 7.4 by measuring the distribution of the HPLC purified radiolabeled peptides in 1-octanol and PBS. Then, 50 μL HPLC purified ^99mTc-BN1/^99mTc-BN2/^99mTc-BN3/^99mTc-BN4/^99mTc-BNS with 100 μCi of radiolabeled compound in PBS was added to a to a centrifuge tube containing 1 mL n-octanol and 1 mL PBS (0.025 M, pH 7.4). The tube was vortexed at room temperature for 2 min and they are centrifuged at 5000 rpm for 5 min to ensure complete separation of layers. Further, 100 μL of each phase was transferred into a separate pre-weighed vial and measured in the well γ-counter. The ratio of octanol layer counts to aqueous layer counts was expressed as the distribution coefficient (D, the appropriate descriptor for ionizable compounds) and logD was used for determination of lipophilicity. Counts per unit weight of the sample were calculated, and logD value as calculated as follows:
log10D = log10 [(cpm in octanol – cpm in background) / (cpm in buffer – cpm in background)]

[1] = test system: MDA-MB-231 tumor-bearing mice; experiment: In vivo biodistribution; design: species or system mouse; details: for Tumor uptake: MDA-MB-231 tumor; for Tumor uptake / Blood uptake / Heart uptake / Intestine uptake / Kidney uptake / Liver uptake / Lung uptake / Muscle uptake / Pancreas uptake / Spleen uptake / Stomach uptake / Urine + urinary bladder uptake: mean ± SD, n = 3
Procedure: All animal experiments were done according to the CSIR-IICB Animal Ethics Committee’s rules and regulation. Forty-eight hours before tumor cell implantation, an immunosuppressive drug (cyclosporine-A) was given intraperitoneal (i.p) at a concentration of 30 mg/kg/day. After that, MDA-MB-231 cells (5 × 10^6) 0.2 mL were implanted subcutaneously into the left flanks of the hind leg of BALB/c mice. Thereafter, the same dose of cyclosporine was given i.p. daily up to 2 weeks. Two weeks after inoculation of the tumor cells, when tumors reached ~ 0.5 cm in mean diameter, the tumor-bearing mice were used for biodistribution and imaging studies. Animals were monitored daily and their weights were recorded. Control group of mice received only 0.9 wt% saline. After cell implantation, the growth rate of the breast tumor followed a satisfactory pattern of spheroid shape and tumors are palpable within 2 to 4 weeks. MDA-MB-231 cell implanted mice tumor models were used for biodistribution and planar imaging studies of these radiolabeled new bombesin analogs.
In tissue biodistribution studies, tumor-bearing animals were divided into four groups and well hydrated for 1 h by intraperitoneal administration of saline (0.9%, 2 mL). Three animals per groups were used for biodistribution studies. After that, the radiolabeled new bombesin analogs (^99mTc-BN) were injected intravenously in each animal of each group consequently through the tail vein [24–27]. After 5, 30, 60, and 120 min intravenous administrations of radiolabeled analogs, the animals were sacrificed; blood, heart, lung, liver, kidney, stomach, intestine, spleen, pancreas, brain, muscle, and tumor were excised, weighed, and counted for radioactivity. The organ uptake was calculated as a percentage of the injected activity per gram of wet tissue (%IA/g). In order to evaluate whether binding of bombesin analogs to MDA-MB-231 cells in vivo is specific; blocking studies with ^99mTc-labeled bombesin analogs in tumor-bearing mice were carried out. Groups of three animals were injected 0.03 nmol of ^99mTc-labeled BN analogs (2 MBq) with 25 nmol of non-radiolabeled BN peptide. After 60 min and 120 min, mice were sacrificed and the organs were collected. Each organ was weighed and counted in a gamma counter along with activity standard and percentage of injected activity per gram (%IA/g) of tissue was calculated for each type of tissues. Counts were corrected for background radiation and physical decay of the radioactivity. The uptake was expressed in the percentage of injected activity per gram of each organ (%IA/g). Data were analyzed statistically by the t test, with the level of significance set at P < 0.05.

in vitro = in vitro ADME; details: rat
Procedure: An aliquot (100 μL) of ^99mTc-BN1/^99mTc-BN2/^99mTc-BN3/^99mTc-BN4/^99mTc-BNS was added to 1 mL of freshly collected rat serum in centrifuge tube. The mixture was then incubated at 37 °C for 1 h; the serum protein was precipitated by adding 1 mL trichloroacetic acid (10%, V/V). The supernatant and precipitate were separated by centrifugation at 3000 rpm for 5 min. Radioactivities of both the phases were measured separately. The above experimental procedure was repeated three times. The percentage of protein binding was determined as: Plasma protein binding % = (precipitate counts (CPM) / [precipitate counts (CPM) + plasma counts (CPM)]) × 100%.

[2] = 60 min p.i., blocked with excess non-radiolabeled BN peptide

^99mTc-BN(7-14)NH2 [99mTc-BNS, reference compound]
logD (physchem): − 0.42 ± 0.10 | Tumor uptake ([1]; 5 min p.i., i.v.): 0.45 ± 0.12 %IA/g | Blood uptake ([1]; 5 min p.i., i.v.): 1.25 ± 0.05 %IA/g | Heart uptake ([1]; 5 min p.i., i.v.): 1.80 ± 0.02 %IA/g | Intestine uptake ([1]; 5 min p.i., i.v.): 0.84 ± 0.03 %IA/g | Kidney uptake ([1]; 5 min p.i., i.v.): 2.86 ± 0.10 %IA/g | Liver uptake ([1]; 5 min p.i., i.v.): 1.60 ± 0.07 %IA/g | Lung uptake ([1]; 5 min p.i., i.v.): 1.35 ± 0.04 %IA/g | Muscle uptake ([1]; 5 min p.i., i.v.): 0.16 ± 0.03 %IA/g | Pancreas uptake ([1]; 5 min p.i., i.v.): 0.88 ± 0.01 %IA/g | Spleen uptake ([1]; 5 min p.i., i.v.): 0.22 ± 0.04 %IA/g | Stomach uptake ([1]; 5 min p.i., i.v.): 0.76 ± 0.03 %IA/g | Urine + urinary bladder uptake ([1]; 5 min p.i., i.v.): 0.56 ± 0.02 %IA/g | Tumor uptake ([1]; 30 min p.i., i.v.): 0.95 ± 0.05 %IA/g | Blood uptake ([1]; 30 min p.i., i.v.): 1.02 ± 0.03 %IA/g | Heart uptake ([1]; 30 min p.i., i.v.): 1.10 ± 0.01 %IA/g | Intestine uptake ([1]; 30 min p.i., i.v.): 0.52 ± 0.05 %IA/g | Kidney uptake ([1]; 30 min p.i., i.v.): 3.12 ± 0.20 %IA/g | Liver uptake ([1]; 30 min p.i., i.v.): 0.85 ± 0.06 %IA/g | Lung uptake ([1]; 30 min p.i., i.v.): 0.84 ± 0.11 %IA/g | Muscle uptake ([1]; 30 min p.i., i.v.): 0.26 ± 0.02 %IA/g | Pancreas uptake ([1]; 30 min p.i., i.v.): 1.73 ± 0.10 %IA/g | Spleen uptake ([1]; 30 min p.i., i.v.): 0.18 ± 0.03 %IA/g | Stomach uptake ([1]; 30 min p.i., i.v.): 0.69 ± 0.05 %IA/g | Urine + urinary bladder uptake ([1]; 30 min p.i., i.v.): 1.92 ± 0.07 %IA/g | tumor/kidney ratio ([1]; 60 min p.i.): 0.26 | Tumor uptake [1, 2]: 0.68 ± 0.20 %IA/g | Blood uptake [1, 2]: 0.84 ± 0.01 %IA/g | Heart uptake [1, 2]: 0.77 ± 0.11 %IA/g | Intestine uptake [1, 2]: 0.36 ± 0.02 %IA/g | Kidney uptake [1, 2]: 2.88 ± 0.12 %IA/g | Liver uptake [1, 2]: 0.42 ± 0.04 %IA/g | Lung uptake [1, 2]: 0.70 ± 0.05 %IA/g | Muscle uptake [1, 2]: 0.17 ± 0.03 %IA/g | Pancreas uptake [1, 2]: 0.90 ± 0.02 %IA/g | Spleen uptake [1, 2]: 0.10 ± 0.03 %IA/g | Stomach uptake [1, 2]: 0.45 ± 0.01 %IA/g | Urine + urinary bladder uptake [1, 2]: 2.58 ± 0.18 %IA/g | Tumor uptake ([1]; 60 min p.i., i.v.): 0.75 ± 0.04 %IA/g | Blood uptake ([1]; 60 min p.i., i.v.): 0.82 ± 0.01 %IA/g | Heart uptake ([1]; 60 min p.i., i.v.): 0.79 ± 0.12 %IA/g | Intestine uptake ([1]; 60 min p.i., i.v.): 0.31 ± 0.02 %IA/g | Kidney uptake ([1]; 60 min p.i., i.v.): 2.82 ± 0.16 %IA/g | Liver uptake ([1]; 60 min p.i., i.v.): 0.40 ± 0.05 %IA/g | Lung uptake ([1]; 60 min p.i., i.v.): 0.68 ± 0.03 %IA/g | Muscle uptake ([1]; 60 min p.i., i.v.): 0.18 ± 0.04 %IA/g | Pancreas uptake ([1]; 60 min p.i., i.v.): 1.14 ± 0.05 %IA/g | Spleen uptake ([1]; 60 min p.i., i.v.): 0.11 ± 0.02 %IA/g | Stomach uptake ([1]; 60 min p.i., i.v.): 0.46 ± 0.04 %IA/g | Urine + urinary bladder uptake ([1]; 60 min p.i., i.v.): 2.54 ± 0.22 %IA/g | Tumor uptake ([1]; 120 min p.i., i.v.): 0.58 ± 0.01 %IA/g | Blood uptake ([1]; 120 min p.i., i.v.): 0.54 ± 0.01 %IA/g | Heart uptake ([1]; 120 min p.i., i.v.): 0.50 ± 0.01 %IA/g | Intestine uptake ([1]; 120 min p.i., i.v.): 0.22 ± 0.01 %IA/g | Kidney uptake ([1]; 120 min p.i., i.v.): 2.40 ± 0.12 %IA/g | Liver uptake ([1]; 120 min p.i., i.v.): 0.22 ± 0.02 %IA/g | Lung uptake ([1]; 120 min p.i., i.v.): 0.33 ± 0.02 %IA/g | Muscle uptake ([1]; 120 min p.i., i.v.): 0.11 ± 0.02 %IA/g | Pancreas uptake ([1]; 120 min p.i., i.v.): 0.95 ± 0.04 %IA/g | Spleen uptake ([1]; 120 min p.i., i.v.): 0.06 ± 0.11 %IA/g | Stomach uptake ([1]; 120 min p.i., i.v.): 0.12 ± 0.02 %IA/g | Urine + urinary bladder uptake ([1]; 120 min p.i., i.v.): 2.85 ± 0.03 %IA/g | Percentage of plasma protein binding (in vitro): 54%
